# Assay results reported in the DeepSol protein solubility set.
# Assay: soluble on expression in E. coli; label from the status in PepcDB or PDB records
row,Sequence,soluble on expression in E. coli
1,MGSDKIHHHHHHADILSCTVDGDILKAEPEIDNESVTLTVKSDADITNLAPVFTLTPGATITPASGSAFDFTTPRTYTVTSEDGHWTKTYTVRCIVSGVSTEYHFEHITMEPKNGRYQIFYDFTSNGDSVTWASGNAGFALTNNKLEPLDFPTMQDDNGYVGKCAKLVTRSTGSFGSGFGMPIAAGNLFIGTFDLLNAIPDARKGTRLGRPFDHVPTYLSGYYKYKAGESYKVNGEEVKGKKDQCDIYAIFYETDENVKYLDGFNGLTSPNLISVARISDQKETDEWTRFYIPFVAKPGKVIDKDKLAKGGYQLSIVFSSSLKGDVFEGAEGSTLWIDEVEIIQSGEN,not soluble
2,MGSDKIHHHHHHAELPLEEGVSVRFEIKRDGVMSRAPGDAALSVNRILILPFRKTDEASSNDAANFVPEYSAARQLDVNSFPAVVTMLTLSAASTYQLLVIGYNRSDYDFASGGGATKRFNIGSTGNPATLANLYLQPVNPTVVPEFFSCFGNGYRGTTLVGPIFKPSQINYVTGTLKRLVSGFTLEVTNVPAYVNSMTLIAEQLVTATRATDGTALTWQTAGDGGTKTLATQAPVSGKVSFNQFLLAIPDSRKTLFYLDVSYGIFTERYTVKLPDTPGVVSGNRIIFTPNHWVKVTGSYANINIGFTLAGNINLDDNAWDGLQ,not soluble
3,MGSDKIHHHHHHAIKNCQIHTFSLSHDSVSGLDTVKFTIDQLTGRIFNIDSLPFGTKIEKVVCKIGFANSSVIGGVEASPEAYPDSTYYLSSLSDSIDFSAPVKFVVHAYDQVTTKVYMAQVNIHQVVPDSMVWSMYANPMIGITVKDQKVVTYDYNGSENYFMYVKPAESGKPYQLYYAPVSAPKGWQSLSLTGLPSDGLLISQITEYNNALYVPATNGTLYRSEDGLTWSAVENAPSVKYVLGSVKQGTKQPSALATIVDQEGKLAFYAMNESMEWIAGDAVPSGFPVTGFSNLQYAAMYHEYLMTASGRTVDNQVVNTTWATMDGISWALMASGDANFTKREGAMITNYDDKFFLIGGIDASNKALKDMYQSIDYGISWSLIDSMVVLPTDYAARGFSSIIVDKENFVNIFGGKISTGSNDLNQLWRGRINRLIPKE,not soluble
4,MGSDKIHHHHHHAISVGNLTFSLPAEADFASKRVVNNNKSARLYRIAVSAIDRPGGSEVRSRPVDGELLFAPRQLVLQAGESEYFKFYYHGPRDNRERYYRVSFREIPTRNLTRRSPTGGEVSMEPVVVMDTILVVRPREVQFKWSFDKVAGTVSNTGNTWFKLLIKPGCDSTEEEGDAWYLRPGDVVRQPALRQPGNHYLVYNDKFIKISDTCPLKPRPAE,not soluble
5,MGSDKIHHHHHHAMFPERYVSEESAARADTINFRLASAGEAKRLIAAKDSYTANWSPFDIAARLENPEGKREDLVSLAVREVREWTAEEAQQIEQIRKNLNDTIRKYGYRIPFPKEIVLVKTTMKDEGGAGGYTRSNWIALTDATFQRGTEASHTRLLVHETFHILTRLNPGFKKKLYRAIDFNILPKEIEFPEDIRKSRISNPDVSRCDSYATFTIDGKPQNCTMIIYTNRPYTTGKFYQYINVGLIPLDESFKPLRESGKTVIYPLQKATDFFDKVGRNTGYVIDPEEVLADNFAIALLNTPNVHTPELQKKVQELLK,not soluble
6,MGSDKIHHHHHHANTQTNIQLERTSSDIEHALYYASFAANSHNTQSWKVNLDPKQKRLGVFLNNKRSLNVVDPNNRELYISIGCYIQSLKKSFEAYGYNVSISNIAPSKENKYQVVLINYQKLKNNKINNKQLDIIQKRHTDKRKFQKKPINRTVVSSLIKKYNNVYYYAKGSKTFKYLQKGSLAAAAKQYKNQDFLKEQGKWLRFSNQEVEKKQDGISGDMLGLNPIIKTLYYLTSNHKNATSNNFVKQSKNTLINQVENCAGFFVITGEQNISKWIAVGEKSQAFWYDCVRNNIAVQPISAMIEIPSYNQKLQQNLGKSQPVQLILRVGYVNSYGKNVGPRRNLKDYITVKK,not soluble
7,MGSDKIHHHHHHAQKGEKTLTVEVSNEWTQNKTDEPIVIDLNNLKAGFNIKSATVWEGNKEIPSQLDDLNGDARADELAFLIDMPAKSNKSFRIILSSEKSEKNYPARTYAQMKAYGHNNKFANITGFSAAGTENVYSFVYHHGPAIESELVAYRIYFNEKQTVDPYSKVNKRLEIKETCFYPTKAQRANGYGDDALRVYNSGGVGALKGWNGTEATHIKPVVNRTERVLASGPVRAIVEAEVIGWEYQGNDLNMINRYTIYGGHRDMKVDVLFDRPLKQEVFAAGVQILKEGGHMSDHKGLTGSWGTDWPVTDTIGYVKETTGMGTFIPKYIGKEVQDGSNYLYTLQAPGQQHFHYYVTFTSKKESFGFKDMKDWFNYLPQWRKELEHPCKITIK,not soluble
8,MGSDKIHHHHHHAQQTSEVDLIDIAGGMEKLTELKVSDLGKTIRYIPLETTDSCLIGDFPNIKLLDDKIMVYNGKQCLLFDKETGKFICSVGHRGDDPEAYSSTCGYLNPKNQLLYFNRDPNQLVKYNQKGNFAGVITIPSPETSTGNIQINRPGMNGFVFSDSIIIGHYVGGLGQRCPSSVLYFSDKGNYIDTIPNIIPELGTGQVGDINNISVRKGFGLLEGIIQIQYNNGKQSICVPGYTALWKCNDEIRFKELFTDTIYTLKHNQLEKYIIFNTGKYYWPASERTLTDNNSDRIMISYAIENDKLLYFQFIRGLYTDKHILYNGIYDKNTKVTNIALAENNFVDDLTHFMPFTPSFLNEKGECASLVQAADILTWLEEHPEVKIEKELGVLKNLNEESNPVVVLVK,not soluble
9,MGSDKIHHHHHHAQRINHVQEAIANYDYEAALTLIAKEKPTIPLLLQKGKAQRGLGMNTEALSTYQEIIANDTANTRAYIEAAECCRSLAKYQQALKYYEQALDLNPENKYVRIQYIGLLLSLQKFQDALGESSLMTEKDSSAIALHLQAQSFEGMGELLPATGCYYNIQEKYPDDYLAAAKLAALNIAGSYFNEAIEATEKYRQTDTTNIAVNRQNALAYCLNKDYPTAIQRYEYLVSQGDSSFHTCYYLGISYYAEEKYYEAHDFLEAARKHDPENVNLLYYLGRACAKTSWKKLGVEYLEKALDLTIPKDSNMVRLYIGMTDCYKMAQMPKEQIESIRERYRKYDKQNHKLLYDMAFIYFYSLKDKKNTERCLEAFLKTRPKEDKEEEAKLNERGELVLGTKNYYNAAANWLKDIQSKQKIEDFFLGGNVPAQKPE,not soluble
10,MGSDKIHHHHHHAQVTPFTYFNVDWQFNAPISNNFANKASGWGMNFEGGYYVLPDLSIGAFINYHTNNEYISRQTLPISNSAALTTDQQHSVFQLPFGFATHYRFSDGACQPYIGLKLGANYTKMSSDFYIYEVKDNTWGFYVSPEVGVNIYPWTNSIGFHLAAFYSYSTNKGTVFNYDMDKLNNFGFRLGVAF,not soluble
11,MGSDKIHHHHHHASCSNDDDEMDKYQKIYIRTGVAPGAEMGAAVVVDCVSNSSTADRSDFEIQLCAVQPVTRDVTAALGVDTLKVDTYNSANKTKCKLLPQDNYTIETSEVVLKTGQTVADSSFQVVLKNIEKLTNPDGYVLPVTLKGVTGMDEQAVSTSMKTVYIRIYTSVLYTSYTKPGNWSAVDRSAWSVSCSNVYADDDAKYGAHLAIDGEINTTWFTWGVANAGECWWNTVLDRPVTLTGFSVTKQSAYGSGYNLRSAEIKVRKEGETEWVTYPRVLTFRNFKGADPQYAAIEPPIPNVKEFRINCLTPDNYTGFAEINLYVKQ,not soluble
12,MGSDKIHHHHHHCGGSGSSEPVAPTTTPDTGFSFAATAMITNLTQEVIVTGYADLAAKGSELVLATQKLINSTSQADLVAAQDAWKAARQPWEQGESHIFGPVDSLSIDPHLDSWPLNTTDLSTQLTTAAGFDAETIKSWNDDVQGFHTMEYLLFGDGVADNTKDISELTVKEREYLIALAQVFRDHAKTLDDAWQINHKPDDANAKPYAELLSQPGVDGNTVYSSELAVIEELINGMIGIVDEVGNGKISDPFGDSITSADTSKVESQYSWNSLTDFANNIQGVRNVYQGEFTGNTDKQGVKDFVSAADANLAVRVASEIDDAIIKIQAISGSNSMPFRQAIKDANGRVRIQTAIDALTKLKTSLESDVIPLLSKWKPA,not soluble
13,MGSDKIHHHHHHDDDIIGALLEGKMPQATPVPPPTTVAATVASIDPPALKPAVDPRWVHLHNVHTGEKLEAVYWENGDYVPDAVSALDKVLRDYRNDEVHPIDRGLYDLLDQIARKTQSKGPFQVISGYRSPATNRLLSKRSGEVAKKSLHMDGKAMDIFLEDVELKHVRAAALDLSVGGVGYYPTSNFVHVDVGPVRKWTGT,not soluble
14,MGSDKIHHHHHHDKNSAPGFSFTTDSILTLTFDKELDAAFVGVGTQNYNPVGMRRSGDTLFIANRAEGSDGVWVVRASTGELLYSLTGWTYNGKNEKFDNQVMDVAVSSDYIFVVNRSSRIDLFRRNDYSYVTTIGRTGWQSSSLLQCEAAEVAGDKLFIRDKQKIKVVQISDCTPENRFKVPVFAQNTDSTSSNNGFNLESVARHEGLIYVSDYETSRILVIDPATVAVKGEPVRFLRSYRMPNKPLSMGFFQNEMYVVCANNCIVRVDLRTGKELGSYSSFAGGVGLGTPGRLLFHNDTFYLAGRNANAPRLIQGKVMFVEISELD,not soluble
15,MGSDKIHHHHHHDLEEYRTTPKMVINSAFSPDTVVMASISRTWFHSESKPDVTIRNAKVELYIDGIFKEEMPWKEYSYWKSSRWLGEDRGGWVTDTLYISNTVPQPGQTVKIVASTPEYGTASAEDKIPSKTEIKGLRIIPRKEATGNGGTLVDGDGNISYIEENDVLIYQITFQDTPGKSNYYSLQIWGDDDHLGVLLDFSVDPVFTQQQGILDEVFGSSMVNWRGRVFSDELFDGKEYTLQVKEQLRSDTKYYTKRHIRLYSLSEPYYQYLLSLQNIKNEGIMGGLTNVGLAEPVRIYSNVEGGTGIAGGCQWFESLVDIKDLIK,not soluble
16,MGSDKIHHHHHHDLLHESYGQVVSEDYVPKTEEDVSYLVNAAYIPWRETLLQWNGVVRAQELCADQDVLPARDGIGWVDGYIYKRWHQHTWTTEDDGVLQGWERTYNGVNTCNRILSQIEEGVISVDGETKEKLIAELKVLRASYYYILIDLYGNVPIVTDFKDTSLPQQSTRKEVFDFIVKEITENMDLLSETPRGYYYGRFNKWAAHTLLAKMYLNAEVWSGTAQWQKCIDECDIVINYAEKSGEYALENNQKDVFVTHNENSKEIIFALPFDEIYVTGWNDFDFHMYTLAPENQDTYQLTARPWGGVCAVPQFINSFDEDDARLEDNYIQGQQYTYSGEILKRSIDGKPLIYTVDVPSIDQSDVDDGFRWGKFEYATGITNRLSNDWPLLRYADVLMMKAESLMRLGKSGAGALVTQVRERAFKNEPEKAQVTDAELMGGSVYDYGRRDSYKTEHDGGTDIKYGRFLDELGWEFCQEGRRRQDMIRFGIFTTKAWFSHDKSDETKNLYPIPNKVLLTNSNLKQNPGYSK,not soluble
17,MGSDKIHHHHHHEDVYREVTASGAHNLTLAVDNPRNLGGADDAALARDVAEVLRFDMTLAGPFSVMAPPAGTSPGGIRPGEFDLDSWRNAGVDLLVKSGYTITGDSVTMEFRLYNATQGRELAAKRYTGKRSDLRRITHTFSDDIMQTMTGERGPFTGKIAFVSTESGNKEIYLMDYDGHNVQRLTKNRSINLNPDFSPNGRELAYTSYRRGNPDLFRREIFTGTEAVVSSHRGINVTGTWSPDGKQLALAMSRDGNSEIYAISRDGRDPRRLTTHQAIDVSPAWSPDGKRIAFVSDRLGKPQVFIMNADGSDVRRLTTSGAYNVSPRWSPKGDRLVYCRQEGGFQIYSIATDGTGDTRLTSEGSNEHPRWSPDGRFLTFSSTRDGGEAIYVMRSDGSGQTRVYRSKGKASHPTWSPRW,not soluble
18,MGSDKIHHHHHHENLYFQGMIIRYATPDDIEDMVSIFIDAYNFPGPRESVKSSFEISLEVQPDGCLLAFLKDEPVGMGCIFFYNKQAWIGLMGVKKAYQRRGIGTEVFRRLLEIGRRKVDTIRLDASSQGYGLYKKFKFVDEYRTVRYELMERPIKRVEGVVEVNKIPNWVKEIDKKAFGDDRIRVLEAYMRRGARLLCAENEGFGLVYRGKIGPLVADSPRVAEKILLKAFQLGAREIIIPEVNKDALELIKIFKPSQVTSCMRMRLGSKIEEKVDIYYGILAYAKG,soluble
